“And” between values parts separate entries of the source, which are not always exact repeats. Identical values can stand only once.
Target: F-actin (filamentous actin from rabbit muscle) (rabbit, UniProt P68135 1-377)
Assay: co-sedimentation

Kd: 2.11 µM and 3.1 µM
B1: 90 kDa isoform of palladin (natural protein)
chain: MSALASRSAPAMQSSGSFNYARPKQFIAAQNLGPASGHGTPASSPSSSSLPSPMSPTPRQFGRAPVPPFAQPFGAEPEAPWGSSSPSPPPPPPPVFSPTAAFPVPDVFPLPPPPPPLPSPGQASHCSSPATRFGHSQTPAAFLSALLPSQPPPAAVNALGLPKGVTPAGFPKKASRTARIASDEEIQGTKDAVIQDLERKLRFKEDLLNNGQPRLTYEERMARRLLGADSATVFNIQEPEEETANQEYKVSSCEQRLISEIEYRLERSPVDESGDEVQYGDVPVENGMAPFFEMKLKHYKIFEGMPVTFTCRVAGNPKPKIYWFKDGKQISPKSDHYTIQRDLDGTCSLHTTASTLDDDGNYTIMAANPQGRISCTGRLMVQAVNQRGRSPRSPSGHPHVRRPRSRSRDSGDENEPIQERFFRPHFLQAPGDLTVQEGKLCRMDCKVSGLPTPDLSWQLDGKPVRPDSAHKMLVRENGVHSLIIEPVTSRDAGIYTCIATNRAGQNSFSLELVVAAKEAHKPPVFIEKLQNTGVADGYPVRLECRVLGVPPPQIFWKKENESLTHSTDRVSMHQDNHGYICLLIQGATKEDAGWYTVSAKNEAGIVSCTARLDVYTQWHQQSQSTKPKKVRPSASRYAALSDQGLDIKAAFQPEANPSHLTLNTALVESEDL
